According to PMC7857403:

Molecular target: SARS-CoV-2 spike ectodomain trimer (SARS-CoV-2) (UniProt P0DTC2)
Experiment: cryo-EM structure

Row | Substance | stoichiometry N (minibinders per spike trimer)
1 | LCB1 (designed binder) | 3
2 | LCB3 (designed binder) | 3
